Experimental data reported in US20230192890A1 (published 2023).

T1: Ala mutant SEQ ID NO: 34 (human)
T1 peptide: EENMDDQAMQDEMEIGY

T2: Ala mutant having 3-amino acid substitution, SEQ ID NO: 46 (human)
T2 peptide: EENMDDAAAQDEMEIGY

T3: Ala mutant having 3-amino acid substitution, SEQ ID NO: 45 (human)
T3 peptide: EENAAAQWMQDEMEIGY

T4: Ala mutant SEQ ID NO: 35 (human)
T4 peptide: EENMDDQWAQDEMEIGY

T5: Ala mutant SEQ ID NO: 32 (human)
T5 peptide: EENMDAQWMQDEMEIGY


What was measured:
[1] = molecular target: T6, full-length recombinant human PAD4 (human, UniProt Q9UM07 1-663); experiment: Biacore T200, human PAD4 as analyte
T6 construct: also called peptidylarginine deiminase 4
T6 sequence (Q9UM07 whole entry): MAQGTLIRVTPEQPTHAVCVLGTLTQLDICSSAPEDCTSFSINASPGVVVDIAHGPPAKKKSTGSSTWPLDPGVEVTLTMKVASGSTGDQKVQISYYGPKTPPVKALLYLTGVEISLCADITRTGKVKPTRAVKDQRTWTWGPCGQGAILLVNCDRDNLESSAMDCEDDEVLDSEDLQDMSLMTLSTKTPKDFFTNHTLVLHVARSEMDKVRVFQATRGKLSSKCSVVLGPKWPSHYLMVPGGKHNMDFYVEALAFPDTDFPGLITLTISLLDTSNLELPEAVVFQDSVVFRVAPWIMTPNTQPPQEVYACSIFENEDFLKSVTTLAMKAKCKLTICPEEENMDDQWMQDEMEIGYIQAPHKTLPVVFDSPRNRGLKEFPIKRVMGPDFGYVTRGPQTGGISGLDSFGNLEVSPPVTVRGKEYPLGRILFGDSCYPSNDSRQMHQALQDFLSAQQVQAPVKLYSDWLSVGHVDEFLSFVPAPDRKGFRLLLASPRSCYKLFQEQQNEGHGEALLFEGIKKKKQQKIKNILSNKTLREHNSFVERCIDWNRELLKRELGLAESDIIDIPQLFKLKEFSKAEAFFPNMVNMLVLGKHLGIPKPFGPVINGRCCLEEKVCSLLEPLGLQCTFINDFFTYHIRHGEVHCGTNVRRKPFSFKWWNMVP

[2] = molecular target: T6, full-length recombinant human PAD4; experiment: Biacore T200, antibody captured by anti-human antibody, human PAD4 as analyte
Text: The humanized anti-PAD4 antibodies derived from G8 and H7 were subjected to Biacore (GE Healthcare, Biacore T200) assay to evaluate their affinity. At that time, the combination of the frameworks was such that the H-chain framework was H4.00 and the L-chain framework was L4.29. The class of each antibody used was IgG1κ. Full-length recombinant human PAD4 was used as an antigen. A Human Antibody Capture kit (GE Healthcare, BR-1008-39) was used for the affinity assay. Specifically, in accordance with the standard protocol provided by the manufacture, NHS/EDC was used and an amine coupling method, in which a free carboxyl group is fixed on a surface of a CM5 chip, was used to immobilize a rabbit anti-human polyclonal antibody on the surface of a CM5 chip. Next, the humanized anti-PAD4 antibodies were each captured by the rabbit anti-human polyclonal antibody. Human PAD4 at each concentration was subjected to Biacore T200 measurement to create a kinetic sensorgram.

[3] = molecular target: full-length recombinant human or mouse PAD4 (Example 4; which of the two is not told for the result); experiment: cell-based or functional assay
Ala mutant SEQ ID NO: 34 = molecular target: T1, Ala mutant SEQ ID NO: 34; experiment: ELISA, peptide on plate (10 ug/mL)
[4] = molecular target: T2, Ala mutant having 3-amino acid …; experiment: ELISA, peptide on plate (10 ug/mL)
[5] = molecular target: T3, Ala mutant having 3-amino acid …; experiment: ELISA, peptide on plate (10 ug/mL)
Ala mutant SEQ ID NO: 35 = molecular target: T4, Ala mutant SEQ ID NO: 35; experiment: ELISA, peptide on plate (10 ug/mL)
[6] = molecular target: T6, full-length recombinant human PAD4; experiment: ELISA, human PAD4 on plate, antibody 0.0009766 ug/mL
[7] = molecular target: T6, full-length recombinant human PAD4; experiment: ELISA, human PAD4 on plate, antibody 0.25 ug/mL
[8] = molecular target: T6, full-length recombinant human PAD4; experiment: ELISA, human PAD4 on plate, antibody 0.015625 ug/mL
[9] = molecular target: T6, full-length recombinant human PAD4; experiment: ELISA, human PAD4 on plate, antibody 0.0625 ug/mL
[10] = molecular target: T6, full-length recombinant human PAD4; experiment: ELISA, human PAD4 on plate, antibody 6.104E-05 ug/mL
[11] = molecular target: T6, full-length recombinant human PAD4; experiment: ELISA, human PAD4 on plate, antibody 1 ug/mL
[12] = molecular target: T6, full-length recombinant human PAD4; experiment: ELISA, human PAD4 on plate, antibody 0.0002441 ug/mL
[13] = molecular target: T6, full-length recombinant human PAD4; experiment: ELISA, human PAD4 on plate, antibody 0.0039063 ug/mL
Ala mutant SEQ ID NO: 32 = molecular target: T5, Ala mutant SEQ ID NO: 32; experiment: ELISA, peptide on plate (10 ug/mL)

Row | Binder | Kd [1] | kon [2] | Relative citrullination activity [3] | absorbance 490 nm/630 nm (Ala mutant SEQ ID NO: 34) | absorbance 490 nm/630 nm [4] | absorbance 490 nm/630 nm [5] | absorbance 490 nm/630 nm (Ala mutant SEQ ID NO: 35) | absorbance 490 nm/630 nm [6] | absorbance 490 nm/630 nm [7] | absorbance 490 nm/630 nm [8] | absorbance 490 nm/630 nm [9] | absorbance 490 nm/630 nm [10] | absorbance 490 nm/630 nm [11] | absorbance 490 nm/630 nm [12] | absorbance 490 nm/630 nm [13] | absorbance 490 nm/630 nm (Ala mutant SEQ ID NO: 32)
1 | Humanized Ab #G8-H4.00/L4.29 (IgG1κ) (antibody, V domains shown, Full-length heavy and light chains; also called humanized anti-PAD4 antibody derived from G8; G8 VH H4.00 / VL L4.29) VH: not shown VL: SYELTQPPSVSVSPGQTARITCSGGNRNYYYGWYQQKPGQAPVTVIYANDKRPSGIPERFSGSNSGSTTTLTISGVQAEDEADYYCGTADTGKYVFGGGTKLTVLG | ≤ 9 nM | – | – | – | – | – | – | – | – | – | – | – | – | – | – | –
2 | Humanized Ab #H7-H4.00/L4.29 (IgG1κ) (antibody, V domains shown, Full-length heavy and light chains; also called humanized anti-PAD4 antibody derived from H7) VH: not shown VL: SYELTQPPSVSVSPGQTARITCSGGSGRYYYGWYQQKPGQAPVTVIYSSTHRPSGIPERFSGSNSGSTTTLTISGVQAEDEADYYCGTADSSSYVFGGGTKLTVLG | ≤ 9 nM | 613000 M⁻¹ s⁻¹ | – | – | – | – | – | – | – | – | – | – | – | – | – | –
3 | A11 (antibody, IgG1, V domains shown, Chicken variable regions in mouse chimeric antibody (IgG1) expression vectors; also called anti-PAD4 antibody A11; A11 etc) VH: AVTLDESGGGLQTPGGALSLVCKASGFDFSSYGMGWMRQAPGKGLEYVAAIRNDGSWTGYGAAVKGHATISRDNGQSTVRLQLNNLRAEDTGTYYCAKTTGSRGGSIDAWGHGTEVIVS VL: ASTQPSSVSANLGGTVEITCSGGGRYYYGWYQQKSPGSAPVTVIYANDKRPSDIPSRFSGSKSGSTGTLTITGVQAEDEAVYFCGSAETSSYVFGAGTTLTVL | ≤ 9 nM | – | 64 relative to PBS = 100 | 0.021 OD | 0.043 OD | 0.039 OD | 0.023 OD | 0.511 OD | 2.11 OD | 2.08 OD | 2.15 OD | 0.063 OD | 2.15 OD | 0.206 OD | 1.31 OD | –
4 | H7 (antibody, IgG1, V domains shown, Chicken variable regions in mouse chimeric antibody (IgG1) expression vectors; also called anti-PAD4 antibody H7; A11 etc) VH: AVTLDESGGGLQTPGGALSLVCKASGFTFSTYAMGWMRQAPGKGLEYVAAIRNDGSWTGYGAAVKGRATILRDNGQSTVRLQLSNLRAEDTGTYYCAKYTGSSGGSIGAWGHGTEVIVS VL: ASTQPSSVSANPGGTVEITCSGGSGRYYYGWYQQKSPGSAPVTVIYSSTHRPSNIPSRFSGSKSGSTATLTITGVQAEDEAVYFCGTADSSSYVFGAGTTLTVL | ≤ 9 nM | – | 35 relative to PBS = 100 | 0.066 OD | 0.044 OD | 0.016 OD | 0.065 OD | 0.537 OD | 2.11 OD | 2.07 OD | 2.12 OD | 0.111 OD | 2.11 OD | 0.217 OD | 1.35 OD | 0.033 OD
5 | G6 (antibody, IgG1, V domains shown, Chicken variable regions in mouse chimeric antibody (IgG1) expression vectors; also called anti-PAD4 antibody G6; A11 etc) VH: AVTLDESGGGLQTPGGALSLVCKASGFTFSSYGMEWVRQAPGKGLEYVAAIRNDGSWTGYGAAVKGRATISRDDGQSTLRLQLNNLRAEDTATYYCAKTTGSSGGSIDAWGHGTEVIVS VL: ASTQPSSVSANLGETVKITCSGGGNYYYGWYQQKSPGSAPVTLIYANDKRPSNIPSRFSGSKSGSTGTLTITGVQAEDEAVYFCGTADTGKYVFGAGTTLTVL | ≤ 9 nM | – | 69 relative to PBS = 100 | 0.042 OD | 0.083 OD | 0.018 OD | 0.015 OD | 0.437 OD | 2.07 OD | 2.01 OD | 2.12 OD | 0.075 OD | 2.11 OD | 0.166 OD | 1.16 OD | 0.035 OD
6 | G8 (antibody, IgG1, V domains shown, Chicken variable regions in mouse chimeric antibody (IgG1) expression vectors; also called anti-PAD4 antibody G8; A11 etc) VH: AVTLDESGGGLQTPGGALSLVCKASGFTFSTYAMGWMRQAPGKGLEYVAAIRNDGSWTGYGAAVKGRATILRDNGQSTVRLQLSNLRAEDTGTYYCAKYTGSSGGSIGAWGHGTEVIVS VL: ASTQPSSVSANLGGTVEITCSGGNRNYYYGWYQQKSPGSAPVTLIYANDKRPSNIPSRFSGSKSGSTGTLTITGVQAEDEAVYFCGTADTGKYVFGAGTTLTVL | ≤ 9 nM | – | 63 relative to PBS = 100 | 0.04 OD | – | 0.065 OD | 0.233 OD | 0.544 OD | 2.1 OD | 2.08 OD | 2.12 OD | 0.1 OD | 2.12 OD | 0.184 OD | 1.34 OD | 0.083 OD
7 | G9 (antibody, IgG1, V domains shown, Chicken variable regions in mouse chimeric antibody (IgG1) expression vectors; also called anti-PAD4 antibody G9; A11 etc) VH: AVTLDESGGGLQTPGGALSLVCKASGFTFSTYAMGWMRQAPGKGLEYVAAIRNDGSWTGYGAAVKGRATILRDNGQSTVRLQLSNLRAEDTGTYYCAKYTGSSGGSIGAWGHGTEVIVS VL: AVTQPASVSANLGGTVEITCSGGGRYYYGWYQQKSPGSAPVTVIYANDKRPSDIPSRFSGSKSGSTGTLTITGVQAEDEAVYFCGSAETSSYVFGAGTTLTVL | ≤ 9 nM | – | 68 relative to PBS = 100 | 0.038 OD | – | 0.019 OD | 0.253 OD | 0.534 OD | 2.08 OD | 2.07 OD | 2.11 OD | 0.082 OD | 2.1 OD | 0.187 OD | 1.36 OD | 0.039 OD
8 | E9 (antibody, IgG1, V domains shown, Chicken variable regions in mouse chimeric antibody (IgG1) expression vectors; also called anti-PAD4 antibody E9; A11 etc) VH: AVTLDESGGGLQTPGGTLSLVCKGSGFTFSSYGMGWMRQAPGKGLEYVAAIRNDGSWTGYGSAVKGRATISRDNGQSTVRLQLNNLRAEDTATYYCAKTSGSSGGSVDAWGHGTEVIVS VL: ASTQPSSVSANLGGTVEITCSGGGRYYYGWYQQKSPGSAPVTVIYANDKRPSDIPSRFSGSKSGSTGTLTITGVQAEDEAVYFCGSAETSSYVFGAGTTLTVL | ≤ 9 nM | – | 59 relative to PBS = 100 | 0.047 OD | 0.027 OD | 0.022 OD | 0.017 OD | 0.489 OD | 2.08 OD | 2.08 OD | 2.12 OD | 0.07 OD | 2.11 OD | 0.176 OD | 1.36 OD | –
